The star is where a group is joined. CSCF3 = thiotrifluoroacetyl on lysine, FC(F)(F)C(=S)*; fluorescein = fluorescein label at the N-terminus

The record followed here is PMC3042044.

One experiment concerns the target Hst2 (yeast) (UniProt P53686). The experiment can be described thus: ITC.
The target of experiment [1] is SIRT3 (human). Kind of experiment: fluorescence polarisation.
Experiment [2] has as its target SIRT3 (human). Kind of experiment: ITC.

Chain of UniProt P53686 (P53686 whole entry): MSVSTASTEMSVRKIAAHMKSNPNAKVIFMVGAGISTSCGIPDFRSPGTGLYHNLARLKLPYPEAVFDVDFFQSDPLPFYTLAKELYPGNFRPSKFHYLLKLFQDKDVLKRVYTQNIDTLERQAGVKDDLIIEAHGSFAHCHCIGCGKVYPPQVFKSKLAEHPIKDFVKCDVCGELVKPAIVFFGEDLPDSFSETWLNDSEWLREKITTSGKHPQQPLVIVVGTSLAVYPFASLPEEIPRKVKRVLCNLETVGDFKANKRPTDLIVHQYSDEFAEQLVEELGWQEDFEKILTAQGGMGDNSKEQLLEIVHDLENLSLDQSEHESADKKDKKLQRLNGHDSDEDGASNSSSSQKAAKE

“Histone H3 peptide with pentafluoropropionyl-lysine at Lys-14” came in with a Kd with Hst2 (yeast) of 950 nM. As to fluorescein-LPKTRSGK(CSCF3)VMRR-OH, the Kd with SIRT3 (human) [1] amounted to 1700 nM; in the experiment with SIRT3 (human) [2] it was 900 nM.
